What was measured:
[1] = biological target: T1, Yersinia entomophaga YenB (TcB component of the Yen-Tc toxin complex) (Yersinia entomophaga, UniProt B6A880 1-1487); assay: co-expression, co-purification by Ni-affinity and SEC
T1 sequence: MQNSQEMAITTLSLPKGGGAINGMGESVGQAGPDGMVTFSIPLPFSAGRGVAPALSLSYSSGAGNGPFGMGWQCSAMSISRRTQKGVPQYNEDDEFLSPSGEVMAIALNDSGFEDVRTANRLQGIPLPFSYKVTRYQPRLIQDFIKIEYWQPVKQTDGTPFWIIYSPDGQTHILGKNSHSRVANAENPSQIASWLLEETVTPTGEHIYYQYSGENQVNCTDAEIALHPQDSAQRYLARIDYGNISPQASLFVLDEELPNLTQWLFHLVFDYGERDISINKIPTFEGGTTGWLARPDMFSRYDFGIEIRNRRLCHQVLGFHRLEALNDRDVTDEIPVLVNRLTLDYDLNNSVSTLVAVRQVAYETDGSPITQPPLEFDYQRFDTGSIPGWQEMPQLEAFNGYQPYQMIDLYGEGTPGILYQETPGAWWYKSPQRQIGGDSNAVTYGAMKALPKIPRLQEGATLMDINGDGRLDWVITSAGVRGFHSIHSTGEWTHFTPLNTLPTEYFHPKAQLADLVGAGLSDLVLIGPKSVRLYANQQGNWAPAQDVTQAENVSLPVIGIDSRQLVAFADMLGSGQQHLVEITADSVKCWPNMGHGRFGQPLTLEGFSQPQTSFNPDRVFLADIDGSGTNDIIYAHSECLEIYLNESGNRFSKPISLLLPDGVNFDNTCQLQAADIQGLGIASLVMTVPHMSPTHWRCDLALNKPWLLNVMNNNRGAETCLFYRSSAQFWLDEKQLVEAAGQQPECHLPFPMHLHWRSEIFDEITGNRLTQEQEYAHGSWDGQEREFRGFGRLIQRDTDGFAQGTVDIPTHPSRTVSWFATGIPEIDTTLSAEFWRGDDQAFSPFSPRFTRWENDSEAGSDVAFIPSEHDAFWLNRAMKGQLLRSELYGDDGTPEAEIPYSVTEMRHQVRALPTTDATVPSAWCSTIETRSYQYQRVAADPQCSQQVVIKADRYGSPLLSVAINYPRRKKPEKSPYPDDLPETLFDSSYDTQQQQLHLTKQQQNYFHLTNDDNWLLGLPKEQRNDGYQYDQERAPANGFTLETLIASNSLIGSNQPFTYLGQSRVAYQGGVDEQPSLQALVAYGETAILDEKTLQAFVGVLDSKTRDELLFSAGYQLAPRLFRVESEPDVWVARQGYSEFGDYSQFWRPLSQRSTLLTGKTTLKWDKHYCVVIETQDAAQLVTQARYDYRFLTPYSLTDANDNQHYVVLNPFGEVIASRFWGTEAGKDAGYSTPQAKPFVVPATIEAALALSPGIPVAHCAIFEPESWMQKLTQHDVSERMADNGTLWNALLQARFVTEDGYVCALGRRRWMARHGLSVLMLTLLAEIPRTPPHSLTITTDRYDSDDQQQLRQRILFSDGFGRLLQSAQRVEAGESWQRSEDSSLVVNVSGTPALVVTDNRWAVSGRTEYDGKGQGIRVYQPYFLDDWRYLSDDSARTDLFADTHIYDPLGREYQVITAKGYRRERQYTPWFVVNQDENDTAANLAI

[2] = biological target: T1, Yersinia entomophaga YenB (TcB …); assay: co-expression in E. coli, size-exclusion chromatography
[3] = biological target: T1, Yersinia entomophaga YenB (TcB …); assay: purification after precipitation of the C-terminal domain at pH 4.5-5.0
[4] = biological target: T1, Yersinia entomophaga YenB (TcB …); assay: X-ray crystal structure (figure legend)
[5] = biological target: T2, YenB/YenC2-N complex (hollow shell) (Yersinia entomophaga, UniProt B6A880 1-1487; B6A882 1-690); assay: SAXS and crystal structure; encapsulation in the shell
T2 construct: Heterodimer of YenB and YenC2-N. It is used here as the partner that encapsulates YenC2-C or GFP; also called TcB:TcC shell; BC shell

B1: Yersinia entomophaga YenC2 (TcC component) (other)
chain: MDIQLFSKTPSVTVFDNRGLSVRDIAYRRHPDTPKVTEECITYHQFDFRGFLAQSLDPRLNHKEVTNFSYLTDLNGNIIYTQSVDAGNTLVLNDTEGRSVIAMTNISRGENGKDDLSLAVTRTFQYENAPLPGRPLSVTEQVNGENARITEHFVYAGNTPQEKNLNLAGQCVSYYDAAGLIQTDSVSLTGKPLSVSRKLLKNLDDTNILADWQGNDTSAWNSLLATEIYTTVTRTDAAGAVLTTIDAVGNQQRVAFDIAGQLSASWLTLKGGQEQVIIKVLTYSAAGQKLREEGGNGVVTTYTYEAETQRLIGIKTERPNGHAAGAKVLQDLRYEYDPVGNVLSITNDAEETRFWRNQKVVPENAYRYDSLYQLVSASGREVAGAGQQGSDLPSPLVPLPSDSSVYTNYTRTYTYDSAGNLMRIRHSAPATNNNYTLNITVSERSNRGVMSSLTENPADVDALFTASGSQKCLQQGQSLIWTPRGELRTVLLVARGETADDSESYRYDGSSQRILKISSQQTNHSARVQRALYLPGLEWRTMTGGVAEAENLQVICIGEAGRAQVRVLHWESGKPDGIINDQIRWSYDNLTCSSGLEVDGDGLVISMEEYYPYGGTAVWAARSHIETAYKTVRYSGKERDATGLYYYGFRYYQPWAGRWLSADPAGTVDGLNLYRMVRNNPLRLTDPDGMAPLDWLDLDTTNASRDIVKAIYQLNQIDGPHRGVRDTYQRMTESTGMILQETLNNEAVLKGIKQKDKEKKSRGMKFTNSKLKTYAAHAGVLNTLQPDPVYKDGFLNLPGSLGNKNTFPGVELIEDKVKPSLSQYHPDKLGKSQRWKPESSLGYYRVADTEAFITGIRSQYKSSGTDLHAVVEGRIRDHLLANNNVLPKMAGIAGLHAEVQALNYIISNPDIEGGNAERLNGSYIFTQRLVGDVNQDFPACYNCSGIISGLENVMTGRVNNDVRLKRRKSF
notes: Expressed as the whole protein; When co-expressed with YenB it self-cleaves after M690 into YenC2-N and YenC2-C, and both fragments stay in the complex
B1: binds [1].

B2: Yersinia entomophaga YenC1 (TcC component) (other)
chain: MNQFDSALHQGTPGVSVLDNRGHVIRELRYYRHPDTPQEIAERIAFHQYDSYGFISQSIDPRLAERRKQDSSVKPNLSYFTALSGEVLRTDGVDAGTIFSLNDIAARPAISISATGVSHTWQYEGENRPGRVLSRSEREKDREERIIERFYWAGSDASQKANNLAGQCLRHYNSAGLNQTLSIALTGTPISACFQPLLESAEPEWQGTNESAWLELLTPEIFTTYNRADANGETLVQTDAMGNIQRLAYDVAGFLKSSWLSLKGGQEQIIVKSLTYSAAGQKLQEEHGNGVLTTYSYEAETQRLIGIRTERPAGHLSGARVFQDLRYTYDPVGNVLRITNDAEATRFWRNQKVVPENTYIYDTLYQLVSANGREMANIPQQSSQLPTLSPIDNNAYTNYIRNYHYDSAGNLMQIRHTSAAANNSYTTNITVSKYSNRAVLSSLTDDVDKVEAFFDAAGRQNQLLPGQTLSWNARGELAKVTPVARDGQESDSETYRYDANSQRVSKMAIQQSNNNTQTRRVLYLAGLERRTIHQGNTLFETLLVVKIGEAGRAQVQAMHWELGQPTEVANDELRYSYDNLIGSSGLEVDGTGQLISQEEYYPYGGTAVWMARSQREASDKAYGYSGKERDATGLYYYGFRYYQPWAGRWLSADPAGTIDGLNLFRMVRNNPIVLHDPDGLAPGFFERISSFRKKDTLTISSLKGTGPFYTRSESEIDIDFLFSRQDRDKDFPPQNHKELSAEDRREVLEVSSGENITSANKSSKWYAGTHWETKPLKNNTDLVVLHNGVQGAAGININLNDIKPGRSVLVTAGTLTGCTMITGVKGNNFYALHAGTGTPSENWVTGEHGVTDNFRMLNKLIPDAGIDLNPEAVNDSLLTILDYFDNGTIAYNGKKGSEIHRDADNILNYRTTGYENTVGVSFSLLTKDKNGEVSASTLLELGELKPHKKHRTRGQFGMTELKYEARKNTVVKLR
notes: Expressed as the whole protein; When co-expressed with YenB it auto-proteolyses into two fragments, and both co-elute with YenB
B2: binds [2].

B3: N-terminal portion of YenC1 (other)
chain: MNQFDSALHQGTPGVSVLDNRGHVIRELRYYRHPDTPQEIAERIAFHQYDSYGFISQSIDPRLAERRKQDSSVKPNLSYFTALSGEVLRTDGVDAGTIFSLNDIAARPAISISATGVSHTWQYEGENRPGRVLSRSEREKDREERIIERFYWAGSDASQKANNLAGQCLRHYNSAGLNQTLSIALTGTPISACFQPLLESAEPEWQGTNESAWLELLTPEIFTTYNRADANGETLVQTDAMGNIQRLAYDVAGFLKSSWLSLKGGQEQIIVKSLTYSAAGQKLQEEHGNGVLTTYSYEAETQRLIGIRTERPAGHLSGARVFQDLRYTYDPVGNVLRITNDAEATRFWRNQKVVPENTYIYDTLYQLVSANGREMANIPQQSSQLPTLSPIDNNAYTNYIRNYHYDSAGNLMQIRHTSAAANNSYTTNITVSKYSNRAVLSSLTDDVDKVEAFFDAAGRQNQLLPGQTLSWNARGELAKVTPVARDGQESDSETYRYDANSQRVSKMAIQQSNNNTQTRRVLYLAGLERRTIHQGNTLFETLLVVKIGEAGRAQVQAMHWELGQPTEVANDELRYSYDNLIGSSGLEVDGTGQLISQEEYYPYGGTAVWMARSQREASDKAYGYSGKERDATGLYYYGFRYYQPWAGRWLSADPAGTIDGLNLFRMVRNNPIVLHDPDGL
notes: Fragment left in complex with YenB after the C-terminal domain precipitated at low pH; also called YenC1 - N term; N-terminal portions of YenC
B3: binds [3].

B4: conserved N-terminal 76 kDa portion of YenC2 (YenC2-N) (other)
chain: MDIQLFSKTPSVTVFDNRGLSVRDIAYRRHPDTPKVTEECITYHQFDFRGFLAQSLDPRLNHKEVTNFSYLTDLNGNIIYTQSVDAGNTLVLNDTEGRSVIAMTNISRGENGKDDLSLAVTRTFQYENAPLPGRPLSVTEQVNGENARITEHFVYAGNTPQEKNLNLAGQCVSYYDAAGLIQTDSVSLTGKPLSVSRKLLKNLDDTNILADWQGNDTSAWNSLLATEIYTTVTRTDAAGAVLTTIDAVGNQQRVAFDIAGQLSASWLTLKGGQEQVIIKVLTYSAAGQKLREEGGNGVVTTYTYEAETQRLIGIKTERPNGHAAGAKVLQDLRYEYDPVGNVLSITNDAEETRFWRNQKVVPENAYRYDSLYQLVSASGREVAGAGQQGSDLPSPLVPLPSDSSVYTNYTRTYTYDSAGNLMRIRHSAPATNNNYTLNITVSERSNRGVMSSLTENPADVDALFTASGSQKCLQQGQSLIWTPRGELRTVLLVARGETADDSESYRYDGSSQRILKISSQQTNHSARVQRALYLPGLEWRTMTGGVAEAENLQVICIGEAGRAQVRVLHWESGKPDGIINDQIRWSYDNLTCSSGLEVDGDGLVISMEEYYPYGGTAVWAARSHIETAYKTVRYSGKERDATGLYYYGFRYYQPWAGRWLSADPAGTVDGLNLYRMVRNNPLRLTDPDGM
notes: Made by self-cleavage of YenC2 after M690 when co-expressed with YenB; The C-terminal fragment was removed at pH 4.5; also called YenC2NTR; YenC2 - N term
B4: binds [4].

B5: C-terminal region of YenC2 (YenC2-C) (other)
chain: APLDWLDLDTTNASRDIVKAIYQLNQIDGPHRGVRDTYQRMTESTGMILQETLNNEAVLKGIKQKDKEKKSRGMKFTNSKLKTYAAHAGVLNTLQPDPVYKDGFLNLPGSLGNKNTFPGVELIEDKVKPSLSQYHPDKLGKSQRWKPESSLGYYRVADTEAFITGIRSQYKSSGTDLHAVVEGRIRDHLLANNNVLPKMAGIAGLHAEVQALNYIISNPDIEGGNAERLNGSYIFTQRLVGDVNQDFPACYNCSGIISGLENVMTGRVNNDVRLKRRKSF
notes: also called YenC-C; TcC-C
B5: binds [5].

From US20160075743A1 (AGRESEARCH, published 2016)
